Several values for one entry are separate records, joined by “and”; a condition that tells them apart may be missing. Equal entries are not always repeated.
Molecular target: empty AAV8 capsid (recombinant adeno-associated virus serotype 8, no genome) (adeno-associated virus 8 (AAV8)) (UniProt Q8JQF8)
Test: native MS; charge detection mass spectrometry (CDMS) of single ions; nanoelectrospray from 200 mM ammonium acetate pH 7.5 after exchange on Micro Bio-Spin columns; 100 ms trapping time; charge versus mass scatterplot; capsid with capsid (multimers of whole particles)

Question: Which percent of ions that are capsid dimers does the source give for “empty AAV8 capsid (recombinant adeno-associated virus serotype 8, no genome) (from UniProt Q8JQF8 1-738) (complex)” here?
Answer: The percent of ions that are capsid dimers was 3.8%.

Question: And the percent of ions that are capsid trimers?
Answer: The percent of ions that are capsid trimers was 0.8%.

Question: What about the stoichiometry N of the same substance?
Answer: Its stoichiometry N is 2 and 3.
